This note sets out measurements from the Immune Epitope Database (IEDB).

Assay in all cases: IEDB peptide-MHC binding, purified MHC/competitive/radioactivity; filed as Kd, often an IC50 or EC50 that approximates it; ≥ and ≤ were set here for values at or beyond the usual limits of such assays
Assay [1] has as its target HLA-B*40:01.
In assay [2] the target is HLA-B*44:03.
Assay [3] addresses HLA-B*44:02.
Assay [4] has as its target HLA-A*01:01.
For assay [5], the target named is HLA-A*30:02.
In assay [6] the target is HLA-A*26:01.
Assay [7] addresses HLA-A*24:02.
The target in assay [8] is HLA-A*23:01.
Assay [9] addresses HLA-A*29:02.
Setting [10] is: source organism: Dengue virus 1 Brazil/97-11/1997.
Setting [11] is: source organism: Dengue virus 3 Singapore/8120/1995.
[12] abbreviates: source organism: Dengue virus 1 Singapore/S275/1990.
Setting [13] is: source organism: Dengue virus 2 Jamaica/1409/1983.
The mark [14] stands for this setting: source organism: SARS coronavirus Tor2.
The mark [15] stands for this setting: source organism: Mammarenavirus lassaense.
The mark [16] stands for this setting: source organism: Mammarenavirus brazilense.
Setting [17] is: source organism: Dengue virus 4 Philippines/H241/1956.
Where [18] appears, read: source organism: Mammarenavirus whitewaterense.
Where [19] appears, read: source organism: Mammarenavirus machupoense.
The mark [20] stands for this setting: source organism: Lymphocytic choriomeningitis virus (strain Armstrong).

Take SEMAEALKGM: the Kd (commonly a measure of binding affinity in units of concentration) amounted to 613 nM in assay [1] (setting [10]), 22.4 nM in assay [2] (setting [10]) and 68.3 nM in [3] (setting [10]).

As for VTTWEDVPY, the Kd in assay [4] (setting [11]) worked out at 0.52 µM; in assay [5] (setting [11]), 248 nM.

With KEISNMLNI, the equilibrium dissociation constant (Kd) in [1] (setting [12]) came out at 191 nM; in [2] (setting [12]) it was 68.7 nM; in assay [3] (setting [12]), 74.6 nM.

NENDQYIYM: the Kd worked out at 208 nM in [2] (setting [13]) and 25.5 nM in [3] (setting [13]).

On to PFWITAIYVF, for which the Kd in assay [6] (setting [14]) came to 0.724 µM; in assay [7] (setting [14]), 0.00192 µM; in assay [4] (setting [14]), 0.41 µM; in [5] (setting [14]) it was 16000 nM; in assay [8] (setting [14]), 0.000189 µM; in assay [9] (setting [14]), 657 nM.

QEHETSWHY: the Kd in assay [2] (setting [13]) stood at 29.6 nM; in [3] (setting [13]), 46.7 nM.

Consider SEMGANFRAD, for which the Kd in assay [3] (setting [10]) turned out to be 137 nM.

For SSPDAVTTY, the Kd in [6] (setting [14]) is 9.74 µM; in assay [7] (setting [14]), at least 77.6 µM; in assay [4] (setting [14]), 5.49 µM; in [5] (setting [14]), 3290 nM; in assay [8] (setting [14]), at least 77.8 µM; in [9] (setting [14]) it was at least 21600 nM.

On to SGALDTTSY, for which the Kd is at least 55.5 µM in assay [6] (setting [14]); at least 77.6 µM in assay [7] (setting [14]); at least 80.6 µM in assay [4] (setting [14]); 20.9 nM in [5] (setting [14]); at least 77.8 µM in assay [8] (setting [14]); 168 nM in [9] (setting [14]).

For WFSQRGGSY, the dissociation constant (Kd) in assay [6] (setting [14]) is 2.16 µM; in assay [7] (setting [14]), at least 62.5 µM; in assay [4] (setting [14]), 0.182 µM; in [5] (setting [14]), 11 nM; in assay [8] (setting [14]) it was at least 77.8 µM; in [9] (setting [14]), 0.847 nM.

DYSVLYNSTF: the dissociation constant (Kd) in assay [6] (setting [14]) is 4.22 µM; in [7] (setting [14]), 0.0242 µM; in assay [4] (setting [14]) it was at least 70.4 µM; in assay [5] (setting [14]), at least 60400 nM; in [8] (setting [14]), 0.159 µM; in assay [9] (setting [14]), 2540 nM.

For the sequence AGFSAGLTY, the Kd in [6] (setting [15]) is at least 77.9 µM; in assay [7] (setting [15]), at least 77.5 µM; in [4] (setting [15]) it was at least 23.9 µM; in assay [5] (setting [15]), 528 nM; in assay [8] (setting [15]), at least 43.8 µM; in assay [9] (setting [15]), 63.6 nM.

For the sequence LTHSINALI, the Kd in [7] (setting [16]) came to 6.72 µM; in assay [8] (setting [16]) it was 1.01 µM; in assay [9] (setting [16]), 12800 nM.

With IEREIPERSW, the figures for the dissociation constant Kd in [2] (setting [17]) and in assay [3] (setting [17]) were 649 nM and 61.6 nM, respectively.

On to IDETCEHEY, for which the Kd in [6] (setting [14]) is at least 32 µM; in assay [7] (setting [14]) it was at least 77.6 µM; in assay [4] (setting [14]), 11 µM; in assay [5] (setting [14]), 162 nM; in assay [8] (setting [14]), at least 77.8 µM; in [9] (setting [14]) it was 2850 nM.

Turning to VWKRFEHLCV, the dissociation constant (Kd) in assay [6] (setting [18]) was at least 69.7 µM; in assay [7] (setting [18]) it was at least 47.6 µM; in assay [4] (setting [18]), at least 70.4 µM; in [5] (setting [18]) it was 10500 nM; in assay [8] (setting [18]) it was 7.99 µM; in assay [9] (setting [18]), at least 71400 nM.

With KMETLQRKY, in [5] (setting [13]), the dissociation constant (Kd) is at least 76900 nM.

Consider QCGDPSSFDY, for which the Kd in assay [6] (setting [19]) is at least 69.7 µM; in assay [7] (setting [19]), at least 70.3 µM; in assay [4] (setting [19]) it was 1.4 µM; in assay [5] (setting [19]), 3310 nM; in assay [8] (setting [19]), at least 28.8 µM; in [9] (setting [19]) it was 5830 nM.

For the sequence RELKCGSGI, the Kd in assay [1] (setting [10]) was 13.8 nM; in [3] (setting [10]) it was 119 nM.

Take LIFRGPNVV: the Kd was at least 77.9 µM in assay [6] (setting [20]); at least 77.5 µM in assay [7] (setting [20]); 10.8 µM in assay [4] (setting [20]); 9970 nM in [5] (setting [20]); 15.4 µM in assay [8] (setting [20]); at least 54700 nM in assay [9] (setting [20]).

In the case of VSSPDAVTTY, the Kd in [6] (setting [14]) is 3.7 µM; in [7] (setting [14]) it was at least 70.3 µM; in assay [4] (setting [14]), 0.223 µM; in assay [5] (setting [14]), 11.3 nM; in assay [8] (setting [14]) it was at least 70 µM; in [9] (setting [14]), 1840 nM.

AYSFLPGVY: the Kd in assay [6] (setting [14]) is 6.39 µM; in assay [7] (setting [14]) it was 0.0308 µM; in assay [4] (setting [14]), 6.52 µM; in assay [5] (setting [14]) it was 0.267 nM; in assay [8] (setting [14]) it was 7.4 µM; in assay [9] (setting [14]) it was 4.52 nM.

In the case of NERRAWNFL, in assay [2] (setting [17]), the Kd was 2090 nM.
